Key:
trimeric human ARG2 = biological target: T1, trimeric human ARG2 (Homo sapiens, UniProt P78540); experiment: Human trimeric ARG2 enzyme inhibition assay (urea production); assay type: biochemical
T1 construct: human ARG2 (aa23-354); His10 (C); made in house; host or cells: E. coli BL21 (DE3)
T1 sequence (P78540 23-354): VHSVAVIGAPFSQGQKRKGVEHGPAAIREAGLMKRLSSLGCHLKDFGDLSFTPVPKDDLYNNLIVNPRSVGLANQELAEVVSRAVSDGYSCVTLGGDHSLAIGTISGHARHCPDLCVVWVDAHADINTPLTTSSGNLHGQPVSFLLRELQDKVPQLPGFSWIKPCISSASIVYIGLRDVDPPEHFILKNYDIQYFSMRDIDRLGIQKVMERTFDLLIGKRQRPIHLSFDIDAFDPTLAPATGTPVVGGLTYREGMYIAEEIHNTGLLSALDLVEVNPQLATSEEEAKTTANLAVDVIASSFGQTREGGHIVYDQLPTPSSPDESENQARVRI
Method: Unpurified anti-ARG2 scFv fragments from periplasmic preparations were screened in an ARG2 enzyme inhibition assay using a Pherastar plate reader (BMG Labtech, Germany). In this assay, the ability of unpurified scFv to inhibit the enzymatic activity of trimeric ARG2 was determined by measuring the production of urea, the product of L-arginine turnover by ARG2.
Selection outputs were screened as unpurified bacterial periplasmic extracts containing scFv, prepared in 200 mM TES buffer pH 7.4, 0.5 mM EDTA and 0.5 M sucrose. 10 μl of unpurified scFv were added to a Greiner Bio-One® 384 well assay plate (Greiner Bio-one, UK; cat: 781901). This was followed by the addition of 5 μl of 1.6 μg/ml trimeric human ARG2 that had been diluted in 40 mM MnCl2, 100 mM tris-HCl, pH7.4 (4× enzyme buffer). […]
Urea was detected by the simultaneous addition of equal volumes of O-Phthaldialdehyde (1.5 mM O-Phthaldialdehyde, 7% H2SO4, 0.03% Brij L23) and N-(1-Napthyl)ethylenediamine (1.66 mM N-(1-Napthyl)ethylenediamine, 81 mM Boric acid, 21% H2SO4, 0.03% Brij L23) followed by an 18 minute incubation at room temperature before the colorimetric product was quantified on the Pherastar by measuring absorbance at 505 nm. […]
Data were analysed by calculating % maximum (max) control for each sample using the 505 nm absorbance data. % max control was determined according to equation 2. […]
IC50 values were determined by testing a dilution series of the purified scFv, prepared in TBS, in the ARG2 enzyme inhibition assay described in section 1.5, substituting the unpurified scFv periplasmic preparation with the purified scFv.
Background control wells were defined for each plate by the omission of substrate. […] Data were analysed by calculating % maximum (max) control for each sample. % max control was determined according to equation 1 detailed in section 1.5. […]
Data were again analysed by calculating % Max control values for each sample. […]

ARG2 = biological target: T2, ARG2 (Homo sapiens, UniProt P78540); experiment: T cell proliferation assay (BrdU, 72 hours) with exogenous ARG2; assay type: cell-based; design: human ARG2 (aa23-354); His10 (C); made in house; host or cells: E. coli BL21 (DE3)
T2 sequence (P78540 23-354): T1 sequence (P78540 23-354)
Method: This assay served to provide in vitro evidence of functional efficacy for each antibody.
Briefly, Leukocyte cones (NHS Blood and Transplant, Watford, UK) underwent Ficoll Plaque (GE, Sweden; Cat: 17-1440-02) gradient separation, PBMC's were extracted and pan T cell population isolated by negative selection using the Human T Cell Enrichment Kit (Stemcell Technologies, France; Cat: 19051) according to the manufacturer's instructions.
40000 cells/well were seeded in complete growth media (RMPI 1640, 5% Human Serum Albumin) into a 96 well clear TC treated microplate (Greiner-Bio One, Germany; Cat: 655180). T Cells were activated by the addition of ImmunoCult CD3/CD28 (Stemcell Technologies, France; Cat: 10971) at a dilution of 1:40 directly into wells and the plate incubated 37° C., 5% CO2 for 45 minutes.
To determine EC50's of test antibodies, a dilution series was created in sterile TBS at 8× the final assay concentration was added to the assay plate containing cells. Plate was incubated for 30 minutes at 37° C., 5% CO2.
ARG2 was added to relevant wells of the plate at a final concentration of 15 μg/ml. The equivalent volume of ARG2 vehicle and test antibody vehicle was added to relevant control wells. […]
Calculated data was expressed as % of control (Equation 3) and graphical plots were constructed using a four parameter fit and EC50's determined using model 205 in XLFit (IDBS, UK). […]

B1: C0020065: anti-ARG2 antibody, alternate lead isolation clone, VH SEQ ID NO: 2, VL SEQ ID NO: 7 (antibody, listed as Homo sapiens, V domains shown)
VH: GVNLRESGGGVVQPGRSLRLSCAASGFTFSSYAMHWVRQAPGKGLEWVAVISYDGSNKYYVDSVKGRFTISRDNSKNTLYLQMNSLRAEDTAVYYCARDSSQLWFDYWGRGTLVTVSS
VL: QSVVTQPPSVSGAPGQRVTISCTGSSSNIGTGYDVHWYQQLPGTAPKLLIYGNSNRPSGVPDRFSGSKSGTSASLAITGLQAEDEADYYCQSYDSSLSGSVVFGGGTQLTVL
modifications: C0020065
- inhibition of the activity of human trimeric ARG2 (trimeric human ARG2; purified recombinant human IgG1, FIG. 3): inhibited
- inhibition of the activity of human trimeric ARG2 (trimeric human ARG2; purified scFv, FIG. 2): inhibited
- EC50 (ARG2; In Presence of rhARG2): > 2 µM
- Maximum % Proliferation (ARG2; In Presence of rhARG2, NHLA value at 0.444 mM): 49%

Reference: patent US20220403048A1, “BINDING MOLECULES TO ARGINASE II [ARG2]” (Cancer Research Technology Limited, priority 2019, published 2022)
